# Experimental data: patent US20170306033A1 (Amgen, published 2017)
# Positions count from the first letter of the chain named.
# T1: human PAC1 receptor (human, UniProt P41586 21-468)
# T1 sequence: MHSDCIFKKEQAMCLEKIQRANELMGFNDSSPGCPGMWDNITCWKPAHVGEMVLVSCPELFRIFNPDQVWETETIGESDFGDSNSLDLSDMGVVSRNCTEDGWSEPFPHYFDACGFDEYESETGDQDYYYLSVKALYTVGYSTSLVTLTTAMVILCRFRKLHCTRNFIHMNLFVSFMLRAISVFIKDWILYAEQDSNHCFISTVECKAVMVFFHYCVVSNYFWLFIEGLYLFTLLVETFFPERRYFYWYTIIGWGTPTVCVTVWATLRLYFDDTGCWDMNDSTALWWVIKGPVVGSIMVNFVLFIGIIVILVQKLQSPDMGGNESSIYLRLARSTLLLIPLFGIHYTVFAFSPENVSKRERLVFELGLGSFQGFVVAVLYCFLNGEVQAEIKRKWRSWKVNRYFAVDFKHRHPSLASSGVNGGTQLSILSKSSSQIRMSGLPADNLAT
# B1: iPS:327281 (bispecific antibody, human IgG1, kappa, lambda, N297G)
# light 1: not shown
# heavy 1: not shown
# light 2: QSVLTQPPSVSAAPGQKVTISCSGSSSNIGNNYVSWYQQLPGTAPKLLIYDNNKRPSGIPDRFSGSKSGTSTTLGITGLQTGDEADYYCGTWDSRLSAVVFGGGTKLTVLGQPKANPTVTLFPPSSEELQANKATLVCLISDFYPGAVTVAWKADGSPVKAGVETTKPSKQSNNKYAAKSYLSLTPEQWKSHRSYSCQVTHEGSTVEKTVAPTECS
# heavy 2: QVQLVESGGGVVQPGRSLRLSCAASGFTFSSFGMHWVRQAPGKGLEWVAVISFDGSIKYSVDSVKGRFTISRDNSKNTLFLQMNSLRAEDTAVYYCARDRLNYYDSSGYYHYKYYGMAVWGQGTTVTVSSASTKGPSVFPLAPSSKSTSGGTAALGCLVKDYFPEPVTVSWNSGALTSGVHTFPAVLQSSGLYSLESVVTVPSSSLGTQTYICNVNHKPSNTKVDKKVEPKSCDKTHTCPPCPAPELLGGPSVFLFPPKPKDTLMISRTPEVTCVVVDVSHEDPEVKFNWYVDGVEVHNAKTKPCEEQYGSTYRCVSVLTVLHQDWLNGKEYKCKVSNKALPAPIEKTISKAKGQPREPQVYTLPPSRKEMTKNQVSLTCLVKGFYPSDIAVEWESNGQPENNYKTTPPVLKSDGSFFLYSKLTVDKSRWQQGNVFSCSVMHEALHNHYTQKSLSLSPGK
# B2: iPS:327288 (bispecific antibody, human IgG1, kappa, lambda, N297G)
# light 1: not shown
# heavy 1: not shown
# light 2: B1 light 2
# heavy 2: B1 heavy 2 with E370K
# B3: iPS:327289 (bispecific antibody, human IgG1, kappa, lambda, N297G)
# light 1: not shown
# heavy 1: not shown
# light 2: B1 light 2
# heavy 2: B1 heavy 2 with E370K
# B4: iPS:327287 (bispecific antibody, human IgG1, kappa, lambda, N297G)
# light 1: EIVLTQSPATLSLSPGERATLSCRASQSVGRSLHWYQQKPGQAPRLLIKYASQSLSGIPARFSGSGSGTDFTLTISSLEPEDFAVYYCHQSSRLPFTFGEGTKVDIKRTVAAPSVFIFPPSDEQLKSGTASVVCLLNNFYPREAKVQWKVDNALQSGNSQESVTEQDSKDSTYSLESTLTLSKADYEKHKVYACEVTHQGLSSPVTKSFNRGEC
# heavy 1: not shown
# light 2: B1 light 2 with G103K
# heavy 2: B1 heavy 2 with G44E
# B5: iPS:327679 (bispecific antibody, human IgG1, kappa, N297G)
# light 1: DIQLTQSPSFLSASVGDRVTITCRASQSIGRSLHWYQQKPGKAPKLLIKYASQSLSGVPSRFSGSGSGTEFTLTISSLQPEDFATYYCHQSSRLPFTFGPGTKVDIKRTVAAPSVFIFPPSDEQLKSGTASVVCLLNNFYPREAKVQWKVDNALQSGNSQESVTEQDSKDSTYSLESTLTLSKADYEKHKVYACEVTHQGLSSPVTKSFNRGEC
# heavy 1: not shown
# light 2: EIVLTQSPGTLSLSPGERATLSCRASQSVSSGYLTWYQQKPGQAPRLLIYGASSRATGIPDRFSGSGSGTDFTLTISRLEPEDFAVYYCQQYGNSLSRFGQGTKLEIKRTVAAPSVFIFPPSDEQLKSGTASVVCLLNNFYPREAKVQWKVDNALQSGNSQESVTEQDSKDSTYSLKSTLTLSKADYEKHKVYACEVTHQGLSSPVTKSFNRGEC
# heavy 2: not shown
# Biological target: human CGRP receptor (human, UniProt Q16602 23-461; O60894 27-148)
# Sequence (Q16602 23-461 limits assumed, chain 1 of 2): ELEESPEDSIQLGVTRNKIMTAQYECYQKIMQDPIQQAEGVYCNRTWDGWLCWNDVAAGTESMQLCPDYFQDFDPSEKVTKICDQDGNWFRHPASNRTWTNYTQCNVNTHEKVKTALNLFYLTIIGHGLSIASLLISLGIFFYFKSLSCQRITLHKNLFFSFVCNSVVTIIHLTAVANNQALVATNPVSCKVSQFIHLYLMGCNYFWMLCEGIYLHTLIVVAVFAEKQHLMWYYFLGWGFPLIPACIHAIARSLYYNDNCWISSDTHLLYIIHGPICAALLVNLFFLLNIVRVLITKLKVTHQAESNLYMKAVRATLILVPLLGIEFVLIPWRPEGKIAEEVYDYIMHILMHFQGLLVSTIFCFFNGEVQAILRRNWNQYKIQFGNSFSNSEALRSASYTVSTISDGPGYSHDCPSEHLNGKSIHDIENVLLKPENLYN
# Sequence (O60894 27-148 limits assumed, chain 2 of 2): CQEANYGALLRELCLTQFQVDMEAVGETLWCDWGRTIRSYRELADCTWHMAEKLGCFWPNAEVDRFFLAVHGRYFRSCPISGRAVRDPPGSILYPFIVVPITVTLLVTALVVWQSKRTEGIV
# Experiment: cell-based or functional assay
row,% inhibition of human CGRPR [%],Binder
1,82,B1
2,67,B2
3,72,B3
4,86,B4
5,86,B5

# Biological target: T1, human PAC1 receptor
# Experiment: cell-based or functional assay
row,% inhibition of human PAC1 [%],Binder
1,50,B1
2,88,B2
3,75,B3
4,71,B4
5,23,B5
